The record followed here is patent US20140256918A1 (published 2014).

The target in experiment [1] is biotinylated N-terminal hCXCR5 peptide (human). The experiment in a line: SPR (Biacore), reversed format, biotinylated peptide on SA chip at 20 RU; mean. In general terms: Surface plasmon resonance follows binding to a sensor surface in real time, without labels.
Experiment [2] deals with C-terminal 6×His-tagged hCXCR5 whole receptor protein (human) (UniProt P32302). Put plainly: SPR (Biacore), whole receptor captured and crosslinked on NTA chip at 300 RU, analyte injected; mean of triplicate.
For experiment [3], the target named is biotinylated N-terminal hCXCR5 peptide (human). Put plainly: SPR (Biacore), reversed format, biotinylated peptide on SA chip at 5 RU; mean.
The target is the same in experiment [4]. The experiment in a line: SPR (Biacore), reversed format: biotinylated peptide on SA chip, mAb injected; mean.
Experiment [5] addresses hCXCR5 N-terminal peptide (human). The experiment in a line: SPR (Biacore), conventional format: mAb captured by anti-mouse antibody on CM5 chip, peptide injected; mean.
Experiment [6] has as its target C-terminal 6×His-tagged hCXCR5 whole receptor protein (human) (UniProt P32302). Put plainly: SPR (Biacore), whole receptor captured and crosslinked on NTA chip at 700 RU, analyte injected; mean of triplicate.
The target in experiment [7] is biotinylated N-terminal hCXCR5 peptide (human). Put plainly: SPR (Biacore), reversed format, biotinylated peptide on SA chip at 100 RU; mean.
For experiment [8], the target named is CD52 displayed on virus-like particles (CD52 VLP) (UniProt P31358). The experiment in a line: SPR (Biacore), CD52 VLP captured by Campath and crosslinked on C1 chip, mAb injected.
The target is the same in experiment [9]. Put plainly: SPR (Biacore), CD52 VLP captured by Campath and crosslinked on C1 chip, mAb injected; second curve.
For experiment [10], the target named is T1, C-terminal 6×His-tagged hCXCR5 whole receptor protein (human, UniProt P32302 1-372, crosslinked on the chip with NHS/EDC after capture).
T1 construct: mature; Purified whole receptor (monomers, dimers and trimers on SDS-PAGE), captured on a Ni-NTA chip and stabilized by limited crosslinking; also called human CXCR5 receptor; 6×His-hCXCR5
T1 sequence: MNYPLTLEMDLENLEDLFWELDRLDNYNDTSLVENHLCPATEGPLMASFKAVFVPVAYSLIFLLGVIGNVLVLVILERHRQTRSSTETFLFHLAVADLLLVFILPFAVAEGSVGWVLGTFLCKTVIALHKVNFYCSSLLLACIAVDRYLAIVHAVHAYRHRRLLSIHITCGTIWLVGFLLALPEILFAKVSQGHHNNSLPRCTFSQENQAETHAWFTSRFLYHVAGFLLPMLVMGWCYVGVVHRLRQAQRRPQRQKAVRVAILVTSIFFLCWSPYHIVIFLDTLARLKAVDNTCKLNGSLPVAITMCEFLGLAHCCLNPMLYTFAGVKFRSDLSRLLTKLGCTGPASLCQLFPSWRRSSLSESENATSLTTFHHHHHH
The experiment in a line: SPR (Biacore), whole receptor captured and crosslinked on NTA chip at 300 RU, analyte injected; mean of triplicate.
Procedure: For direct capturing by an NTA SPR sensor chip, the purified 6×His-hCXCR5 protein was diluted to 50 ug/ml with HBS—N (from GE) buffer. An NTA reagent kit (GE) was used for chip surface preparation. The flow rate was set to 5 ul/ml and HBS—N was used as the running buffer. […] In order to stabilize native-like structure of the receptor captured on the chip surface, the commonly used amine coupling reagent NHS/EDC was tested at different concentrations as shown in FIGS. 11 and 12.
In order to assess the impact of the avidity effect on this capture and stabilization method, chip surfaces with different receptor densities were prepared.

For experiment [11], the target named is T1, C-terminal 6×His-tagged hCXCR5 whole …. Put plainly: SPR (Biacore), whole receptor captured and crosslinked on NTA chip at 700 RU, analyte injected; mean of triplicate.
Experiment [12] has as its target biotinylated N-terminal hCXCR5 peptide (human). The experiment in a line: SPR (Biacore), reversed format, biotinylated peptide on SA chip at 100 RU; mean; affected by avidity and artificial Koff.
The target is the same in experiment [13]. The experiment in a line: SPR (Biacore), reversed format, biotinylated peptide on SA chip at 100 RU; mean; called artificial, outside the Biacore accuracy limit.
Experiment [14] has the same target. Put plainly: SPR (Biacore), reversed format: biotinylated peptide on SA chip; the reference of the comparison is not named (by Table 2, the other two clones).

As for mouse anti-hCXCR5 mAb MAB190 (antibody), the Kd is 66.8 pM in experiment [1]; 610 pM in experiment [2]; 164 pM in [3]; 141 pM in experiment [4]; 656 pM in [5]; 256 pM in experiment [6]. In [7], this molecule returned a Kd of 39.4 pM. Moreover, the koff in [1] was 0.000511 s⁻¹; in experiment [2], 0.000423 s⁻¹; in experiment [3], 0.000711 s⁻¹; in [4], 0.000595 s⁻¹; in [5] it was 0.00027 s⁻¹; in experiment [6], 0.000307 s⁻¹. Also, the koff in [7] was 0.000256 s⁻¹. Besides, the kon is 7.65e+06 M⁻¹ s⁻¹ in experiment [1]; 694000 M⁻¹ s⁻¹ in [2]; 4.33e+06 M⁻¹ s⁻¹ in [3]; 4.23e+06 M⁻¹ s⁻¹ in experiment [4]; 408000 M⁻¹ s⁻¹ in experiment [5]; 1.2e+06 M⁻¹ s⁻¹ in [6]. In addition, the kon in [7] came out at 6.5e+06 M⁻¹ s⁻¹.

Turning to anti-CD52 mAb (Campath) (antibody), in [8], the Kd is 5750 pM, the koff was found to be 0.00109 s⁻¹ and the kon stood at 189000 M⁻¹ s⁻¹. In experiment [9], the Kd is 5810 pM, the koff amounted to 0.000937 s⁻¹ and the kon was determined as 161000 M⁻¹ s⁻¹.

B1: CXCL13 (ligand, UniProt O43927 23-109, looked up)
chain: VLEVYYTSLRCRCVQESSVFIPRRFIDRIQILPRGNGCPRKEIIVWKKNKSIVCVDPQAEWIQRMMEVLRKRSSSTLPVPVFKRKIP
notes: also called hCXCR5 ligand
B1: in experiment [10], the Kd was 1370 pM, the koff amounted to 0.00718 s⁻¹ and the kon came out at 5.26e+06 M⁻¹ s⁻¹. In [11], the Kd amounted to 891 pM, the off-rate (koff) amounted to 0.00553 s⁻¹ and the kon is 6.25e+06 M⁻¹ s⁻¹.

B2: mouse anti-hCXCR5 mAb clone 16D7 (antibody, V domains shown)
VH: QVQLKESGPGLVAPSQSLSITCTVSGFSLIDYGVNWIRQPPGKGLEWLGVIWGDGTTYYNSALKSRLSIRKDNSQSQVFLKMNSLQTDDTAMYYCARIVYWGQGTLVTVSA
VL: DIVMTQAAPSVAVTPRESVSISCRSSKSLLHSSGKTYLYWFLQRPGQSPQLLIYRMSNLASGVPDRFSGSGSGTAFTLRISRVEAEDVGVYYCMQHLEYPYTFGGGTKLEIK
For the molecule B2, the Kd came to 32.5 pM in experiment [1]; 0.0974 pM in [12]; 39.9 pM in [10]; 70.2 pM in experiment [3]; 65 pM in experiment [4]; 503 pM in [5]. The molecule further yielded a Kd in experiment [11] of 39.6 pM. The koff in experiment [1] turned out to be 2.7e-05 s⁻¹; in experiment [10] it was 9.62e-06 s⁻¹; in experiment [13] it was 9.85e-08 s⁻¹; in experiment [3], 4.71e-05 s⁻¹; in experiment [4], 4.59e-05 s⁻¹; in experiment [5] it was 0.000241 s⁻¹. The molecule also gave a koff in experiment [11] of 1.28e-05 s⁻¹. Further, the kon is 832000 M⁻¹ s⁻¹ in [1]; 240000 M⁻¹ s⁻¹ in experiment [10]; 681000 M⁻¹ s⁻¹ in experiment [3]; 708000 M⁻¹ s⁻¹ in experiment [4]; 480000 M⁻¹ s⁻¹ in experiment [5]; 318000 M⁻¹ s⁻¹ in experiment [11]. Moreover, in experiment [7], the kon was determined as 1.01e+06 M⁻¹ s⁻¹. This molecule showed a fold slower off-rate in [14] above 10 fold.

In general, koff refers to the rate constant with which the complex falls apart. A lower koff goes with slow dissociation. As usually defined, the kon is the second-order rate constant of association. The low end stands for slower complex formation, the high end for faster complex formation.
